Measured values published in PMC10512374, “Characterization and Phylogenetic Analysis of a Novel GH43 β-Xylosidase From Neocallimastix californiae” (Frontiers in Fungal Biology, 2021).

T1: Xyl43Nc (Neocallimastix californiae, UniProt A0A1Y2A0L6)
T1 construct: E. coli BL21 pLysS (DE3); HisTrap and Sephacryl S-200
T1 sequence (A0A1Y2A0L6 1-326): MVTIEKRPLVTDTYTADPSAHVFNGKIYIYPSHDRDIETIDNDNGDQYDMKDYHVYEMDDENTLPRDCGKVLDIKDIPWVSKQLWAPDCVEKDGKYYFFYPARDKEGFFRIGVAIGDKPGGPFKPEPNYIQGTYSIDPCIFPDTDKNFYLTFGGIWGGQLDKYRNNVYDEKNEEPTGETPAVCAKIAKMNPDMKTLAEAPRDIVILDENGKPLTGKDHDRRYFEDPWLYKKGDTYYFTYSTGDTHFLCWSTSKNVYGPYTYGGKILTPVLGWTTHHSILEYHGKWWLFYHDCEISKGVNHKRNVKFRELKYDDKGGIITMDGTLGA


Columns and labels:
Xyl43Nc = molecular target: T1, Xyl43Nc; assay: product inhibition of 4-nitrophenyl xyloside hydrolysis, […] nm, curve fit; format: biochemical; settings: competitive, xylose 0-10 mM, substrate 4-nitrophenol-xylopyranoside 0.25-7.5 mM
purified protein = substrate: O=[N+]([O-])c1ccc(O[C@@H]2OC[C@@H](O)[C@H](O)[C@H]2O)cc1; assay: purified protein; format: biochemical, Neocallimastix californiae; settings: pH 6, 32 °C, no added metal

Row | Molecule | Ki (Xyl43Nc) | Km (purified protein) | Vmax (purified protein) | kcat (purified protein)
1 | OC1OC[C@@H](O)[C@H](O)[C@H]1O (stereo partly shown) [xylose] | 6.11 mM |  |  | 
2 | Xyl43Nc (Neocallimastix californiae) (protein, E. coli BL21 pLysS (DE3); HisTrap and Sephacryl S-200) MVTIEKRPLVTDTYTADPSAHVFNGKIYIYPSHDRDIETIDNDNGDQYDMKDYHVYEMDDENTLPRDCGKVLDIKDIPWVSKQLWAPDCVEKDGKYYFFYPARDKEGFFRIGVAIGDKPGGPFKPEPNYIQGTYSIDPCIFPDTDKNFYLTFGGIWGGQLDKYRNNVYDEKNEEPTGETPAVCAKIAKMNPDMKTLAEAPRDIVILDENGKPLTGKDHDRRYFEDPWLYKKGDTYYFTYSTGDTHFLCWSTSKNVYGPYTYGGKILTPVLGWTTHHSILEYHGKWWLFYHDCEISKGVNHKRNVKFRELKYDDKGGIITMDGTLGA |  | 720 µM | 47 µmol/min/mg | 29.3 s⁻¹
